# Reference: IntAct's records for PubMed 23706742
# Target: pk3cb_mouse Pik3cb (UniProt Q8BTI9)
substance,measurement,value
Ras-related C3 botulinum toxin substrate 1 (Mus musculus) (from UniProt P63001) I33D,effect of a mutation on the interaction,decreasing interaction strength
